Results on 16 sequences are retold here after the DeepSol protein solubility set.

A short description of this series: soluble on expression in E. coli; label from the status in PepcDB or PDB records.
For “METFDVVVIGAGAAGMMCAIEAGKRGRSVLVIDHAKAPGEKIRISGGGRCNFTNTGASIHNFLSANPKFALSALRRYRPRDFIALVERYGIAYHEKTLGQLFCDGSAKQIITMLLTEMKAAGVTLRLETSVESVAKAVSGFEVSLSSGKVACASLVVASGGKSIPKMGATGLGYDIAKQFGLNIIETRPALVPLTFEAGMLARLTPLSGVALDAVVGHGKTKFQEGMLFTHRGLSGPSILQISSYWREGDEIRVDMAPGVDALAALKTARTATPRQAVATVLATLLPKRVAQVIAEEEAPDKGNIADCSDKVLGRLASAVNAWTFKPVGSEGYRTAEVTLGGVDTEALDSRTLEAKAVPGLFFIGEVVDVTGWLGGYNFQWAWASGWSAGQSV”, the “soluble on expression in E. coli” value is recorded as “soluble”.

In the case of “MGSDKIHHHHHHMIFFNKDEQLENIGNGILDATWAAFPTLARNQIALTWVVYDPPVRVNTGGALTPNAFWDHPVRGFTYRGVERIYPASVVKLFYLVAVNEWLEKGMSQTSKELERALRDMIVDSSNDATSLVVDILSGTTSGPELPTGPFETWKYQRNIVNRYYQSLGWEEMETINVCQKTWGDGPYGRERAFAGELLENRNMLTTNAIARLLHSIVGGVAVSSARSQAMMALLKRPLNDLPTDTEENQVTGFLGGGLPQNAQIWSKAGWTSQVRHDAAYIELPEQRPYLLVVFTEGKAQAKSQAILPFVSQQVADAISSL”, the “soluble on expression in E. coli” value was “not soluble”. To “MSLGGTGKVGVILPLLTSPFWQSYNDYVPKMAKSEGVDTLKTVNSNSDPSQQITDINNQLNQGVKGLVVAPLDSAAIEAGLDQADRKGVPVVAVDVAPEKGKVAMVVRADNVAYGEKACQYLGEQVTSGKVVQIMGDLASVNGRDRSEAFRTCVRKNYPKLKVLEIPAKWESDTAASKLDTLLNANPDIKGIYMQAGGVYLAPTLQTLKSKGLLKKTGEKGHITIVSNDGIPQEFDAIRKGQIDATVSQPADAYAKYGMYYIKAAMQGKTFKPGPTDHDSTIVKLPSGILEDQLPAPLVTKDNVDDAKLWGNTEGHHHHHH” belongs “soluble”. As to “MSRRGGAPSRPPRPPIRYVATAPKPSRVVTRSRPEGVRWLRADGTPNWSQRVRRLPGDAKELASRPAVSVHKSAPILSAAEKIASHRVRGLVVIKGSGDAVLEGILLATDLVNYLGGGDYFQIVENRHRDSIYSALRKEVVATIMNRHPIAVSVSDDLDTILRIMVGEGIGFLPVLYDDGTLHGVITERNILGRIADIP”, the “soluble on expression in E. coli” value is on record as “not soluble”.

For the sequence “MSTESSHQVHTATVPVRWTDFDRFGHVTNSAYVDLAQEARTVWANDNFAVKGHQIPAVFVRHIEVDYLRPIMPSTSQVVVETEVVHIGNTSFTTRQHLKDGEGHVCATVIAVQVAVDMLTTRPRAIAAHELQVLTQFAASTQQESEQ”, the “soluble on expression in E. coli” value is given as “not soluble”. The result for “MGSPAHRPALLLLLPPLLLLLLLRVPPSRSFPGSGDSPLEDDEVGYSHPRYKDTPWCSPIKVKYGDVYCRAPQGGYYKTALGTRCDIRCQKGYELHGSSLLICQSNKRWSDKVICKQKRCPTLAMPANGGFKCVDGAYFNSRCEYYCSPGYTLKGERTVTCMDNKAWSGRPASCVDMEPPRIKCPSVKERIAEPNKLTVRVSWETPEGRDTADGILTDVILKGLPPGSNFPEGDHKIQYTVYDRAENKGTCKFRVKVRVKRCGKLNAPENGYMKCSSDGDNYGATCEFSCIGGYELQGSPARVCQSNLAWSGTEPTCAAMNVNVGVRTAAALLDQFYEKRRLLIVSTPTARNLLYRLQLGMLQQAQCGLDLRHITVVELVGVFPTLIGRIGAKIMPPALALQLRLLLRIPLYSFSMVLVDKHGMDKERYVSLVMPVALFNLIDTFPLRKEEMVLQAEMSQTCNT” reads “soluble”; that for “METKDLIVIGGGINGAGIAADAAGRGLSVLMLEAQDLACATSSASSKLIHGGLRYLEHYEFRLVSEALAEREVLLKMAPHIAFPMRFRLPHRPHLRPAWMIRIGLFMYDHLGKRTSLPGSTGVRFGADSVLKPEIVRGFEYSDCWVDDARLVLANAQMVVRKGGEVLTRTRATAARRENGLWIVEAEDIDTGKKYVWQARGLVNATGPWVKQFFDEGMHLPSPYGIRLIKGSHIVVPRVHNQKQAYILQNEDKRIVFVIPWMEEFSIIGTTDVEYKGDPKAVKIEESEINYLLKVYNAHFQKQLGRDDIVWTYSGVRPLCDDESDSPQAITRDYTLDIHDENGKAPLLSVFGGKLTTYRKLAEHAMEKLASYYPGIGPAWTKTCVLPGGDIDGSREDYAAKLRRRYPFLTESLARHYSRTYGSNTEWILGEATSLLDLGEDFGHEFYEAELKYLVDHEWVRRTEDAIWRRTKEGMWLTAEQQSRITQWLAAYVEKHQLSMASLEHHHHHH”, “soluble”. The result for “MIDMALTDDIILLGQVPLFAGFSDDQLRLIAFGAERRRVSAGQILFREHSPAECAFAVTSGHFELFTAGRDGKPLLQATPGKGALLSELALFTLCERKFTAVAVEDSEVIRITRILFHRLVEEFPEVADIVSARIRDNIAALAAGAARLQNRFV” reads “not soluble”; that for “MEEAKNPWLTGNLVEEANSQGIIQNRSIFNLFANTNIYIFFRHWTTIYERLLEIKQMNERVTKEINTRSTVTFAKDLDLLSSQLSEMGLDFVGEDAYKQVLRLSRRLINGDLEHQWFEESLRQAYNNKAFKLYTIDKVTQSLVKHAHTLMTDA”, “not soluble”.

Consider “CTRAVYLGPDRMVVTGRTMDWKEDIMSNIYVFPRGMQRAGHNKEKTVNWTSKYGSVIATGYDIGTCDGMNEKGLVASLLFLPESVYSLPGDTRPAMGISIWTQYVLDNFATVREAVDEMKKETFRIDAPRMPNGGPESTLHMAITDETGNTAVIEYLDGKLSIHEGKEYQVMTNSPRYELQLAVNDYWKEVGGLQMLPGTNRSSDRFVRASFYIHAIPQTADAKIAVPSVLSVMRNVSVPFGINTPEKPHISSTRWRSVSDQKNKVYYFESTLTPNLFWLDLKKIDFSPKAGVKKLSLTKGEIY”, for which the “soluble on expression in E. coli” value is on record as “not soluble”.

“MTTDYDFWLFDLDGTLVDIEPAYPRKVMGAVGDRLGVEFTDRERDALWYGFGGTRSRTLAERNVDQQEFWRLFHEEEDPIARAEATYLYDDAEQFLATLDTPVGLVTHCQQYLTEPVLDHLDITDWFETVVCCDDDIGWKPDPKPVELAMREMDVWYNGHHGVLAGDNPSDIGAAWNAGLDGVHVGRRSPTETGRCVRGDRRVASLLDLSSSQGR”: the “soluble on expression in E. coli” value is “not soluble”. The result for “MYTPLYRPRYPEGLDPGIQHGVLRLLNPDPRVGEAEHRLENLLEPPYGGPPPPYYQSRPLRPYCYVSAEAGLNNLDPAVPRFVEVLSQPLVYLSPQETLV” reads “soluble”; that for “MPPQPQIMVDLQMEQVMPNPDLKNIARLISQDPGLSGALLKLVNSPFFGLANRITSIQRAVNLLGSRSVINLINAQSIKGEMSDDTIVTLNRFWDTAQDVAMSCLSLAKRIGYESVDEAYALGLFHNCGIPLMLKRFPHYMAVLEEAYAAASDERRVVDTENRVLNTNHAVVGYYTARSWRLPEHVCEAIANHHNALSIFGDESARDTQLKNLLAILKMAEHICGSHRVLGNQPEDHEWNSIGALVLDYVGLTDYDFENLKGSILELGVGQGSY”, “not soluble”; that for “MQVLVRDNNVDQALRALKKKMQREGIFREMKMRGYYEKPSEKRAREKAEAVRRTRKLARKRAQREGLISNGRGSPLKLEHHHHHH”, “not soluble”. The result for “MSETGTRISPLFSHRRWKLQVLDLQDVCENFWMVWSEAMARGCFLNAKRNKKPVQDCPRMRGRQPLTVFVELWLKNRTLDEHLTCLLLWVKQRKDLLHLCCKKLKILGMPFRNIRSILKMVNLDCIQEVEVNCKWVLPILTQFTPYLGHMRNLQKLVLSHMDVSRYVSPEQKKEIVTQFTTQFLKLHCLQKLYMNSVSFLEGHLDQLLSCLKTSLKVLTITNCVLLESDLKHLSQCPSISQLKTLDLSGIRLTNYSLVPLQILLEKVAATLEYLDLDDCGIIDSQVNAILPALSRCFELNTFSFCGNPISMATLENLLSHTIILKNLCLELYPAPRESYGADGTLCWSRFTQIRAELMKRVRDLRHPKRILFGTDYCPDCGNRSFYDLEADQYCC” reads “not soluble”. To “MFFVLSPAKNLNEKDPAPVSEFTQPDLLAESDILMQQLRELAPQQIAELMHVSDKIALLNAQRNAEWNTPFTPENAKQAVFMFNGDVYEGMDANTLDIGQIRYLQNHVRLLSGLYGLLRPLDLIQPYRLEMGTAFANLRGKNLYEFWGDIITNLLNDTLAQAGSNTLVNLASQEYFKSVNTKKLRARLITPIFKDEKNGKYKIISFYAKRARGLMVRYAAEHHITDPEMLKNFNYEGYAFNDAASNESEWVFMRSEQIK” belongs “not soluble”.
